In the supplement of paper PMC10065799, “High-throughput profiling of sequence recognition by tyrosine kinases and SH2 domains using bacterial peptide display” (eLife, 2023):

What was measured:
AncSZ = assay: phosphorylation enrichment, bacterial display (enrichment ratio); higher = better substrate or ligand; peptides without Tyr show the background
EPHB1 = EPHB1 (UniProt P54762); assay: as above
EPHB2 = EPHB2 (UniProt P29323); assay: as above
FGFR1 = FGFR1 (UniProt P11362); assay: as above
FGFR3 = FGFR3 (UniProt P22607); assay: as above
Fer (mouse) = assay: as above
Fes = Fes (UniProt P07332); assay: as above
Fyn = Fyn (UniProt P06241); assay: as above
Hck = Hck (UniProt P08631); assay: as above
Jak2 = Jak2 (UniProt O60674); assay: as above
MERTK = MERTK (UniProt Q12866); assay: as above
c-Abl (mouse) = assay: as above
c-Src = assay: as above
Grb2 SH2 = Grb2 SH2 (UniProt P62993); assay: SH2 binding enrichment of the phosphorylated peptide, bacterial display (enrichment ratio); higher = better substrate or ligand; peptides without Tyr show the background
SHP2-C SH2 = assay: as above
c-Src SH2 = assay: as above
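For SH2 binding enrichment of the phosphorylated peptide, bacterial display in this document: peptide library displayed on the E. coli surface as eCPX fusions, selected cells deep-sequenced, score is each peptide's frequency after selection divided by its frequency in the input.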
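For phosphorylation enrichment, bacterial display in this document: 11-residue human phosphosite peptides and single-mutation variants displayed on the E. coli surface, counted by deep sequencing, each peptide's frequency after selection divided by its frequency in the unselected input library; frequency after pTyr selection over input frequency; kinase dosed for 20-30% of maximal phosphorylation in three min.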

FGFR3, sequence (P22607 whole entry, looked up): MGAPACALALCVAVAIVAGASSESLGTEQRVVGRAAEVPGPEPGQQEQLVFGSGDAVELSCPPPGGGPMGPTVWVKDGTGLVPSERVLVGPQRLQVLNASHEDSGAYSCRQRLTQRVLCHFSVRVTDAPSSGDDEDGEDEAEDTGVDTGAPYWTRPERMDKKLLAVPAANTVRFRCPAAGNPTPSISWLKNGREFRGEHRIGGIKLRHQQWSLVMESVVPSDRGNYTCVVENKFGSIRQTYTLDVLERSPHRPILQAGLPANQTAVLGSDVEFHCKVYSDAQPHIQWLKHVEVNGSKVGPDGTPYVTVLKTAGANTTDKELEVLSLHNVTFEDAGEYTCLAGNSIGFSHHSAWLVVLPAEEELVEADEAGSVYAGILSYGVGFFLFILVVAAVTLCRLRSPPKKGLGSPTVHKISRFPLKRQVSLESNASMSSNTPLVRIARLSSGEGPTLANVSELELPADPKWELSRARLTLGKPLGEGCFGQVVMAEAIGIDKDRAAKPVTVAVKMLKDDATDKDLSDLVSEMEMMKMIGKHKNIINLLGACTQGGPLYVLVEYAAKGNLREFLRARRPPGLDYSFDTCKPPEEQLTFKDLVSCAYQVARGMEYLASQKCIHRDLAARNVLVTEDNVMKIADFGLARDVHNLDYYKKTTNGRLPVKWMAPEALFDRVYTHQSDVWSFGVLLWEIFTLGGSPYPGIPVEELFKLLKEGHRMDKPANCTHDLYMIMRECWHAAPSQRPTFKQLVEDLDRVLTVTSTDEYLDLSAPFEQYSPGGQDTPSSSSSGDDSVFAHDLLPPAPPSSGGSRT
Fes, sequence (P07332 whole entry, looked up): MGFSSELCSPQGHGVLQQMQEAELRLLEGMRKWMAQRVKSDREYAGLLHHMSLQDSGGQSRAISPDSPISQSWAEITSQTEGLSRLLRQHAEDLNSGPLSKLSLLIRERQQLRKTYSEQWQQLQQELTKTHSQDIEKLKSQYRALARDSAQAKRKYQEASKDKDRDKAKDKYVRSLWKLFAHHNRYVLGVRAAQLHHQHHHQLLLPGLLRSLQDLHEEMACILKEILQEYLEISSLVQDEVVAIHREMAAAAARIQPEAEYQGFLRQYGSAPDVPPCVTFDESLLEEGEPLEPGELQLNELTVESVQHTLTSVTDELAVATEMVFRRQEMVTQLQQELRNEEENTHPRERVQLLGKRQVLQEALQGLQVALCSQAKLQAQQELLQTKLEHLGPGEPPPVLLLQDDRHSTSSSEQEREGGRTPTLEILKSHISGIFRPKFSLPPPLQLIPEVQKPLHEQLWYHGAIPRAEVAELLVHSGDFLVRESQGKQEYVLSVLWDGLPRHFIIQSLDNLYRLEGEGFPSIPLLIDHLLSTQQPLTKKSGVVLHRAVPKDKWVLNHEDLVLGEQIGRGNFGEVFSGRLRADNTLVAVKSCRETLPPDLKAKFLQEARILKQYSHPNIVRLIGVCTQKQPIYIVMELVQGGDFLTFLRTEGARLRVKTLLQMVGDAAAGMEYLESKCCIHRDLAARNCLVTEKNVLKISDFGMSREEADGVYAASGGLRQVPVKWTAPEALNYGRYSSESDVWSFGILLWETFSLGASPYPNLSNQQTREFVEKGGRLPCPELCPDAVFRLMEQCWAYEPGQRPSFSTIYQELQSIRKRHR
MERTK, sequence (Q12866 whole entry, looked up): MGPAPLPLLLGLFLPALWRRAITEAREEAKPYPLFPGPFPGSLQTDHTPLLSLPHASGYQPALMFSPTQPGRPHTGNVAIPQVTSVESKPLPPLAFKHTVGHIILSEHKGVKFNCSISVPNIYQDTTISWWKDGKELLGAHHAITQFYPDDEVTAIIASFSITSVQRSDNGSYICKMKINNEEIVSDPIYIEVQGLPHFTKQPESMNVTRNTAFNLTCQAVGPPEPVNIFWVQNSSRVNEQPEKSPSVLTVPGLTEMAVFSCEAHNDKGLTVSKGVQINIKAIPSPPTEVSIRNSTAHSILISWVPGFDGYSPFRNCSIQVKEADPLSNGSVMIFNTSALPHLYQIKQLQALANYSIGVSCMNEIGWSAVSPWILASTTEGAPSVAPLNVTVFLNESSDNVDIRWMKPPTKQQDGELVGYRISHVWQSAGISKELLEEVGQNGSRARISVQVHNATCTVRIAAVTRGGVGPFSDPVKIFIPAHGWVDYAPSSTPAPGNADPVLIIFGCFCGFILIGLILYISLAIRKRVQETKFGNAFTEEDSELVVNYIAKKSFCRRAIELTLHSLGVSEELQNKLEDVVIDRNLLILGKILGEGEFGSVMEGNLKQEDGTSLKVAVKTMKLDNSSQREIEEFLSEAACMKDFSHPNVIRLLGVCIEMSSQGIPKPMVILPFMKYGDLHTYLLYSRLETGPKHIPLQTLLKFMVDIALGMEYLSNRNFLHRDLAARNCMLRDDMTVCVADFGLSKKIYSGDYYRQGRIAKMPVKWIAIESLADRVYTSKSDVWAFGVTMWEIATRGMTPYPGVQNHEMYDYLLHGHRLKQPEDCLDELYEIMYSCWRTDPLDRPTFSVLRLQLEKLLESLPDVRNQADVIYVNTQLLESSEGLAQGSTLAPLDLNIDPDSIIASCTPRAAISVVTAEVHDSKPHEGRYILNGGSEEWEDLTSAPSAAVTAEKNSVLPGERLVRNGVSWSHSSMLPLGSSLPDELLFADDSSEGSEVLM
Jak2, sequence (O60674 whole entry, looked up): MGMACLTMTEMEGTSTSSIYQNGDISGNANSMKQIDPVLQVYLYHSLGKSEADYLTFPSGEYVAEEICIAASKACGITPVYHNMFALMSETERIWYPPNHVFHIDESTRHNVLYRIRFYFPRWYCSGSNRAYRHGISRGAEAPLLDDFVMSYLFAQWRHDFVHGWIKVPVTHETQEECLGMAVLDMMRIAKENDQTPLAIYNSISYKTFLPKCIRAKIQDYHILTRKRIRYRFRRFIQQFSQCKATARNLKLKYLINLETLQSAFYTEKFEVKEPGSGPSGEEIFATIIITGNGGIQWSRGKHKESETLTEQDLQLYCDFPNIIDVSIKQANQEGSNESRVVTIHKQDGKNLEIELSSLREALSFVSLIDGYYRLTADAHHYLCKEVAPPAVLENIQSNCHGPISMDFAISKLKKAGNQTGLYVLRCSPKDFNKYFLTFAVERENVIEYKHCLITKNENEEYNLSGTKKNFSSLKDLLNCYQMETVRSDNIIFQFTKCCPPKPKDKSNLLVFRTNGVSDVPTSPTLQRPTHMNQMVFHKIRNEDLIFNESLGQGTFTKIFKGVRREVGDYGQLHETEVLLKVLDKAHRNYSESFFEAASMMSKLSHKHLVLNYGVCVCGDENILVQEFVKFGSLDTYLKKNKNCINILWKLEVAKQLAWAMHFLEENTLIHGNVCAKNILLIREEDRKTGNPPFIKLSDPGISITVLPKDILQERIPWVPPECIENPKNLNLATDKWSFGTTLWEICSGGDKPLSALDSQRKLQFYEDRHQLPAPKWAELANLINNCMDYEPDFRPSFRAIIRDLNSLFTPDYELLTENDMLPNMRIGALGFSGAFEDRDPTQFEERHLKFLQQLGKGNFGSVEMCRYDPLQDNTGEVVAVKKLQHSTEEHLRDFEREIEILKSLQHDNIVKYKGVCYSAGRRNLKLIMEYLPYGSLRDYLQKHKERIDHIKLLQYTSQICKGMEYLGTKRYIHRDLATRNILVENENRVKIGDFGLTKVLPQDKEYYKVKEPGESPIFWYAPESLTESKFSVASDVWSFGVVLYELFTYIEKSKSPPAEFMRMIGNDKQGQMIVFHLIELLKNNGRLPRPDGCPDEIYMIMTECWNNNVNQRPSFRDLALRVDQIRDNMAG
Hck, sequence (P08631 whole entry, looked up): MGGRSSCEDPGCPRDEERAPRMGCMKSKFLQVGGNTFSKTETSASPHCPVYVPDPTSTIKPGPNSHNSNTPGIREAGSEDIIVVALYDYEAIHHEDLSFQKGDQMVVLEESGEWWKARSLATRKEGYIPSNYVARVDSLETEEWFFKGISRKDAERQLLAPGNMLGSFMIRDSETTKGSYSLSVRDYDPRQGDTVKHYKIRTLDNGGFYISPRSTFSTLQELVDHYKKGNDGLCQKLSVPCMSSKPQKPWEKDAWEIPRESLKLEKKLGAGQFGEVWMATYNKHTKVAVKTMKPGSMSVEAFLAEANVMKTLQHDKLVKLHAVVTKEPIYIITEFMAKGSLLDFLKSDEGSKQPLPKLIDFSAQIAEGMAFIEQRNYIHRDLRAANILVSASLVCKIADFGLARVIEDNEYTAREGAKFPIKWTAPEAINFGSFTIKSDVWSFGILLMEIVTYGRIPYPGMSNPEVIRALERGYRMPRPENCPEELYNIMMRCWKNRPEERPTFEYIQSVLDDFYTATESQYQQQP
Fyn, sequence (P06241 whole entry, looked up): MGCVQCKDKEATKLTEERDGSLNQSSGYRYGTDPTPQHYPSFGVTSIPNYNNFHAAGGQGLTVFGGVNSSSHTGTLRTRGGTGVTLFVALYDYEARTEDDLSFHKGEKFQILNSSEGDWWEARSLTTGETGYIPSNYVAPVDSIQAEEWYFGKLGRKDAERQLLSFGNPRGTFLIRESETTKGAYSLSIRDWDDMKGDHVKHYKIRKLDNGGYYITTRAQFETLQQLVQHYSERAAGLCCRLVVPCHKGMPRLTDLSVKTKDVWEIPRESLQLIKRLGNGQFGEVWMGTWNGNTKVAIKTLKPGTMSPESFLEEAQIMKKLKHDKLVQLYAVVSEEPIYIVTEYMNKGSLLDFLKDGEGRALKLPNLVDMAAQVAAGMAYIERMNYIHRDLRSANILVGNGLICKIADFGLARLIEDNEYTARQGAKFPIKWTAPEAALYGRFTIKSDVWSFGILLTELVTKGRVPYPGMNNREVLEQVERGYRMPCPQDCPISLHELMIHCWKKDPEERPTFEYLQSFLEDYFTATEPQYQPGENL

Sequence | SH2 binding enrichment (Grb2 SH2) | SH2 binding enrichment (SHP2-C SH2) | SH2 binding enrichment (c-Src SH2) | phosphorylation enrichment (AncSZ) | phosphorylation enrichment (EPHB1) | phosphorylation enrichment (EPHB2) | phosphorylation enrichment (FGFR1) | phosphorylation enrichment (FGFR3) | phosphorylation enrichment (Fer (mouse)) | phosphorylation enrichment (Fes) | phosphorylation enrichment (Fyn) | phosphorylation enrichment (Hck) | phosphorylation enrichment (Jak2) | phosphorylation enrichment (MERTK) | phosphorylation enrichment (c-Abl (mouse)) | phosphorylation enrichment (c-Src)
DSGKLYALDGL [INO80_Y1104_V1108G] | 0.92 | 0.525 | 0.567 | 0.829 | 0.723 | 0.833 | 0.581 | 0.715 | 0.719 | 1.02 | 0.763 | 0.828 | 0.912 | 2.2 | 0.699 | 1.17
MASISYDFCRV [BST2_Y6_T4I_YF] | 0.764 | 0.666 | 0.672 | 1.24 | 0.692 | 0.712 | 0.496 | 0.824 | 1.59 | 1.17 | 0.554 | 0.629 | 1.03 | 0.653 | 0.908 | 0.497
KKFFSYAWPFF [BRDT_Y291_H288Y_YF] | 1.34 | 1.25 | 0.982 | 1.07 | 0.505 | 0.545 | 0.515 | 0.716 | 0.488 | 0.991 | 0.555 | 0.497 | 0.92 | 1.58 | 0.611 | 0.497
YTGSTYRVGDT [FN1_Y106_N104S] | 0.836 | 0.902 | 0.538 | 0.72 | 0.422 | 0.453 | 0.726 | 0.58 | 0.405 | 0.748 | 0.464 | 0.529 | 0.715 | 0.355 | 0.595 | 0.48

Continued, in another order:

SH2 binding enrichment (Grb2 SH2) | SH2 binding enrichment (SHP2-C SH2) | SH2 binding enrichment (c-Src SH2) | Sequence | phosphorylation enrichment (AncSZ) | phosphorylation enrichment (EPHB1) | phosphorylation enrichment (EPHB2) | phosphorylation enrichment (FGFR1) | phosphorylation enrichment (FGFR3) | phosphorylation enrichment (Fer (mouse)) | phosphorylation enrichment (Fes) | phosphorylation enrichment (Fyn) | phosphorylation enrichment (Hck) | phosphorylation enrichment (Jak2) | phosphorylation enrichment (MERTK) | phosphorylation enrichment (c-Abl (mouse)) | phosphorylation enrichment (c-Src)
0.789 | 0.618 | 0.543 | PDGREYIFVDP [PDGFRA_Y572_H570R_YF] | 2.12 | 0.62 | 0.532 | 1.86 | 1.2 | 0.615 | 1.08 | 0.649 | 0.647 | 1.02 | 0.49 | 0.488 | 0.431
0.708 | 0.766 | 1.12 | PLQKTYNYNVL [SLC4A1_Y553] | 0.872 | 0.66 | 0.689 | 0.711 | 0.691 | 0.628 | 1.08 | 0.495 | 0.596 | 0.986 | 0.43 | 0.881 | 0.565
1.19 | 0.785 | 0.674 | AEPDIYQEKLS [USP54_Y1233] | 0.994 | 0.531 | 0.508 | 0.457 | 0.623 | 0.485 | 1.08 | 0.58 | 0.702 | 1.01 | 0.405 | 0.692 | 0.568
0.952 | 0.759 | 0.557 | MDDKEYYSVHN [MET_Y1234_Y1230D] | 1.99 | 0.613 | 0.62 | 2.06 | 1.88 | 0.54 | 1.06 | 0.575 | 0.619 | 1.03 | 0.373 | 0.747 | 0.695
